In the supplement of paper PMC12636428:

Tested on: Saccharomyces cerevisiae
Assay: transcriptional activation domain activity (GFP:mCherry ratio, weighted mean of sorted bins, harmonized to initial dataset scale) (arbitrary fluorescence ratio units); higher = stronger transcriptional activation
Details: beta-estradiol 1 µM; induction time 4 h
Protocol: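 53-aa protein tiles (fungal proteins plus yeast TF control tiles) fused C-terminally to a DBD-estrogen-binding domain-mCherry synthetic TF, integrated in S. cerevisiae (URA3 locus) with a GFP reporter. Cells were induced with 1 uM beta-estradiol for 4 h at 30 C, FACS-sorted into 8 bins by GFP:mCherry ratio and barcodes sequenced. Activity is the read-weighted mean bin fluorescence (GFP:mCherry), averaged over barcodes (median 12); tiles under 50 reads were discarded. New active-learning values were harmonized by linear fit onto the scale of the initial (Hummel et al.) dataset. The assay saturates at low and high signal.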

First: MGVLFLLCPCLCVVPLFCIAMQWSIGLYLCLDQRFPVLYTYFFILFSSILFCS
Second: GTAIEGLVIRFYIRKYEDSNNNNLEQNKTGQVRVSSPRAYLRIVGYTWVLAWF
The “transcriptional activation domain activity” value of the first is higher: 48300 for the first, 38700 for the second.

First: MALKAREELEEIYGMPVIYIPVFISCMHRINAVLLSLGNFLLISGAYLRSSFV
Second: GGGKGHEDGYMREVRVVPAYLLVEIINRKENRKERVGAKLLLTRACVLGLYTL
The “transcriptional activation domain activity” value of the first is higher: 53200 for the first, 45400 for the second.

First: QPIASCVVKVNFGMISNDSNFCGLVSGIIYVYMGLGGAFMLLVAVCVIKVRYT
Second: FVHVYLRKRISGFPPGYRVAGELIIWCGAVVALSFESILATDASGSGYRLSDP
The “transcriptional activation domain activity” value of the first is higher: 67700 for the first, 58200 for the second.

First: MRCLRSVLGVFFLSYSLYILHCIFCLISYPLAISFMNLSCLGWFHGFWGFIYF
Second: EKVGTLWRARDVNERRQAKASGAAGGAAKATKPAGAAAASGAKPKATGAAGAA
The “transcriptional activation domain activity” value of the first is higher: 36000 for the first, 21900 for the second.

Compared with “LSPHLPPHLPPRLYFAIDSDLFLLLLLPPFDICFYLSSLLVLIFFIYLLLEVH”, “WLMYYIHATGDTKVSLPFNPSRVIKINMVLLSHLVAWINYLPLVVSYVHWRYW” is higher in “transcriptional activation domain activity” value: 30600 for the first, 51000 for the second.

First: EVKETKEGESQSPAKQEVVQEETVKPSPPQPPQQTKQQKKKKLVLTSGGGGRG
Second: MLILLYLSLLPILYFCTDGLIKDTLLYLHACGLIVWWHCPSSTGDMYGLRHFW
The “transcriptional activation domain activity” value of the first is lower: under 6570 for the first, 55800 for the second.

Going from “KWVAHSVVEKCVLLLILWHRYAMDVVRECSEAWEKLITGKTAPNGISTTNLTV” to “KQYCVRPNSGRIEVGSEVEVQVLLQAMREDPPPDARCRDKFLVQSVAITPERD”, the “transcriptional activation domain activity” value rises from 31500 to 42800.

Compared with “LRAMVMAAPYDGDINITFTKHRSKIYIRPNNTLSELLSNGWIKFLAIILFIYP”, “NKEKMAAFGSFVTEDQEKMEVSFNIFNEITIQDLNFLQFSSIPKLWENKTLEP” is higher in “transcriptional activation domain activity” value: 36600 for the first, 79600 for the second.

Going from “MGPWICQTQPTSYLILSGLVHSFLKSSQGFISYIFSTLVHMTFLVFLYIHLFR” to “MVLLSRLIFVAVILSLTGCRSQLESRCMVFGYRRVLVVVVRAISSCAALLRCA”, the “transcriptional activation domain activity” value rises from 58800 to 71100.

Going from “IGLQMASFVLGGFVYFGLSFQSSNYVVLLYYEFAALSQNVYLTVAIIWRLLIF” to “LFSQLFFPREQAKGVLGWLVWILYMLEKVLFSFSKRRGFFIVCQLEFCVLILT”, the “transcriptional activation domain activity” value falls from 72300 to 40300.

First: MWSLCILLVGLLIWYIVFFSYPPPNRIYLFSPSLGVCLVSFFFFLWGLFGGVF
Second: KFFVRHQHKLYYVILSLGRFNLHNLSFTYLFTAPRVRYRWLEIFGICVFFTWY
The “transcriptional activation domain activity” value of the first is lower: 53400 for the first, 55900 for the second.

Compared with “ELGFVEIVQVSPRFGILLLCMTLSMISIIVDLLSVTPVIPIGVINPFWKFAFV”, “VYCELVSFLVLSSKKSDTKLLIQLERVARYISQLLFVESDAITMTSGISVLRP” is lower in “transcriptional activation domain activity” value: 39800 for the first, 37500 for the second.

Going from “TEYIYQGSNGLRWPPLAFPEHFVYPTEYIAHVYSWLILGLSYVYLLLLVFFYY” to “LWLYLAKQLFYEDLGWFFLLLAFYFTWPLIFLLFLIFWMLFVLVYVLFYLVSF”, the “transcriptional activation domain activity” value rises from 46100 to 52300.

Compared with “FRSFVLMRLLVPIPAYFVLSCMFSMINLPFKLSFGGMGYGYGAGFMIWWCFTF”, “DEVTDWFGASEDIGLEFVEPWTELIEQRYMQCGDGDNNNFENLYNLFVNSNNI” is higher in “transcriptional activation domain activity” value: 65100 for the first, 137000 for the second.

Going from “TEVHVARERIMSYALNLFQLAAGPSEYLANLQTGYHYVACLQWLLRFKIFALV” to “MVRGLFLCFLFSCPWRLLSCCLFLQIFLFSLHLFALKIYVSFFLVHFHACFWA”, the “transcriptional activation domain activity” value rises from 57300 to 60900.

Going from “LAYLVMQGFFRTFGLMCFNFDSAFRLAVFFIPNFVEYTGYILPVISMQRWLFW” to “KHLAEAGLGIAAAGAAKELYDHRKHHRSSSVSSSGGEHNHNGRHIAAAALGAT”, the “transcriptional activation domain activity” value falls from 63100 to 28000.

First: LLYALMNFSRIFSSGHSFGRKIIMFFEFVYLLLNFLFGFVSLGHFYFAFHFLI
Second: ELQKLLKFKVDDKKYPRFSPMFYPNNVKKDKLLFRVRLLVNILRVVLLGPSSL
The “transcriptional activation domain activity” value of the first is higher: 37000 for the first, 36100 for the second.

Going from “MRWFFLLFWVFLSFFLSLQFFSILSFVCGSLACSISLLCRFSLRGAGFCWLGG” to “HEQKICAKYGSDVIFADNIDGGDSDEDERSTSCTCGKLRAIVARVMVAIGGDL”, the “transcriptional activation domain activity” value rises from 47600 to 48400.

Compared with “GAKGKGAEKGKSKQAEQGDGEDGGSEAEGGKRKRAARSKAKTKGKAGGAADGG”, “VSYVSYVLLFIPFFMLRVFYLSIVTFFLCHIWLHRFGFLVWLWILWCTWGWCN” is higher in “transcriptional activation domain activity” value: 23300 for the first, 54800 for the second.

Compared with “MLCGAMPIVSLFSFYTFFFVFWCYLLKFFSVMAWLSTHIALLPSFFVLLTFSL”, “KRGRPAKKAQEEVEVEEAAPAKRGRKAVAKEEPAKKETKAKPTTKSRGTKRAA” is lower in “transcriptional activation domain activity” value: 40600 for the first, 38600 for the second.

First: ASAAASGASTPATAAPPGGLFGKTPATAAPAAATPAATKSLFPAAATTTAPAA
Second: MSAPVEEKMAALNVNDKKPAAPKADKKAKKSKGTEGEYPLEFSPAPEYLQHRI
The “transcriptional activation domain activity” value of the first is higher: 45700 for the first, 30300 for the second.

First: IEHKYTTQVNVFFGIVFSELLKSNTAVRGCLMVGIARVAKSGWMSGLNHIEVF
Second: GKRARGVGKLRPSVVLYNELHKDGEGVGEVARRDLVGSSKGKGRSGVDTLLVV
The “transcriptional activation domain activity” value of the first is higher: 68500 for the first, 59800 for the second.

Going from “PVKAIEAPLAEEKSEEKEAEPEKAEEAEEEVTEKPAAKKAKGGKKGAKGKKVK” to “ASENSESSDSSDDEADVPSRKGNAASAVNTMADDDDDEEGGGGATTAAAARTK”, the “transcriptional activation domain activity” value falls from 46800 to 16900.

First: EARTLVMHAQQGFSFHFGCQMSLSGMMLLSYILLLPPIFTGYQLLWLLWIVFP
Second: AKGAKKAKGAKKAKGAKKAAAGGAAAKAGAAAKAAKKAAKAKAAAAGGAAAAA
The “transcriptional activation domain activity” value of the first is higher: 61400 for the first, 26000 for the second.

First: HWSYARNANMIVNFFYKNIMGIGVLWWFQIYCGWSTTYVFEYTYLLFWNVFWS
Second: CGSQSPALLYPYYQIDTIVPCIRDLESYYKSAGFPTTTLIWPLFLHLMILFVV
The “transcriptional activation domain activity” value of the first is lower: 56200 for the first, 75400 for the second.

First: MEWMGGWLVLGGWIYLFCSVMFKLDRLVVFLEVFFFYLLLCVIVLVMGLVVML
Second: HSILGFRFPRLRIMRCITCSSMRPDLRWLTFPIFENLEVFITSLYLTRKYWIQ
The “transcriptional activation domain activity” value of the first is lower: 38800 for the first, 58300 for the second.

Going from “TREMREKVEREREGRRRAREEKEKRGGGGGGGKGKKGRGGKGKGKAVPGAGAG” to “TGAPIRLVAEKAEEQEQDQEGEAPAQDQAQDQEQTQDQGQARAQAGTKAQATK”, the “transcriptional activation domain activity” value falls from 49400 to 8780.

Going from “AWKRVTALLGPVVRLKADIVEIFERVMIIYFRSLDLEEKPITAGILGTVNKWN” to “PKDSEPEGADKLKPMQEVYGAVRNTGIGTEVDNRDNMIRGRWRKLLHARLAHL”, the “transcriptional activation domain activity” value falls from 48300 to 43500.

First: PAPAPEAPKEEEAAAEPAAEPPKTEEAPAAEPVKEPEQAEPTPAADAPADAPA
Second: KVGFVLIFLFALLVFTSIICSPIYVFSVPYSSICISLQVHRCCLFYGAVIWFV
The “transcriptional activation domain activity” value of the first is lower: 18900 for the first, 31300 for the second.

First: SKHSKKRSSKRARSSSSSSSSSSSEEDDRRRRKRRKEKKRSHKKSHTRRRSRS
Second: CMLRFVIWLCSKWVPYRSGVWEEFKFLLDHPRRCFTLLFPSGANWWLFWVLIL
The “transcriptional activation domain activity” value of the first is lower: 32700 for the first, 60600 for the second.

First: RKRKASASPERDEEGKSGPKGRGRTARRGSKAGRGKSGGTQRGGRKGASEREV
Second: LLPKSFPYSFFILFFFFLNFLLSSCFFLLFFPSPIRLSPSFTLVVIFHYFLRF
The “transcriptional activation domain activity” value of the first is lower: 38500 for the first, 51500 for the second.

Compared with “QVTALVRLIVRLNCELDLNLRGFVAALCIHWIKQSAGSASLKVLLYHAVFLAD”, “HKRRRDSVMMDYDLSNFFSSRQLDISKVLNGTEQNNSHVNDDVLTLSFPGETD” is lower in “transcriptional activation domain activity” value: 44900 for the first, 35100 for the second.

Going from “KEVMDQIHAIWCILLYLYYGTLETDHVFRFCFAPNVSRPLSELEQRFFNERHG” to “KRSRKHSSREDVGEEGEDRRSEHRERKKEKEREKDKEKDKDRSRSRHKRSRSD”, the “transcriptional activation domain activity” value rises from 48000 to 53600.

Going from “MDPQIDSQTPKRPSRGACRECASSKVKCLPQSSTNDGKCERCQLRGKACERRS” to “MKILYCILCMLFFFLFLSFYIQKKILFSLTCVFTLPPLSLFLFFFLFIVQILC”, the “transcriptional activation domain activity” value rises from 22700 to 55700.

Compared with “LCYQRMLLRVLLSFCDWIIKLESASQASKLGESMILARRSVDLLVIAIINVGT”, “TLTSPQGSDLASNSATQYKPDLEDFLMQNSNFNGLMINPSSLVEVVGGYNDPN” is higher in “transcriptional activation domain activity” value: 40700 for the first, 83200 for the second.

Compared with “IDVCLRERDANDYSRQVLGHYWENGIPLSSNRIIHDLLVILRNVIARVITAAK”, “MLMVLFSIFSTMPSPVYIIILFPSFLTFFFRYILSTVLGLWTFAFHLIPNSCW” is higher in “transcriptional activation domain activity” value: 42300 for the first, 65200 for the second.

Going from “KGKAAKSGWDDDEDEKKKEEGEGEGGDGGDKSGDIGAGGDGDKKDEASGNADG” to “GCVVSCKLVGLFTITLIGVAVLYDLWRIIDIRRGTTMAQFARHFVARALALIA”, the “transcriptional activation domain activity” value falls from 27500 to 21600.

Compared with “CPACLSVCTYYLRCLLCSAALYTMGLLAFWWRFLFWHDCILLWSLSLFPFTLS”, “GAATTANAGGKRNRMKVNGKYYTRLDCIGRGGSSRVYRVMAENSKFFALKRVT” is lower in “transcriptional activation domain activity” value: 87400 for the first, 35500 for the second.

Going from “VNDIYDSSRSRACNACRNSKVRCEQPRPDHPCKRCAKARRECVSSTRGHKRRR” to “KQPEPRTRSASPKRAASPAKPVAAEKPAAVAAAAEKPAEKVAEKAAEKPAPAV”, the “transcriptional activation domain activity” value rises from under 6570 to 31400.

In the case of “KDYSVEAGIRFLQFIIHKCITVDIGVLCDIIDKVYGSLVIINCLRRYRNLHNL”, the “transcriptional activation domain activity” value is reported as 48500.
